From patent publication US20230122364A1 (VANDERBILT UNIVERSITY, published 2023)

How the values were obtained:
[1] = target: T1, SARS-CoV-2 spike (S) protein on authentic SARS-CoV-2 virus (strain WA1/2020) (SARS-CoV-2, UniProt P0DTC2 14-1273); test: cell-based or functional assay
SARS-CoV-2 NTD = target: T2, SARS-CoV-2 NTD (SARS-CoV-2, UniProt P0DTC2 14-305); test: ELISA, purified IgG
T2 construct: domain: NTD

[2] = target: T3, SRBD subdomain of SARS-CoV-2 S protein (SARS-CoV-2, UniProt P0DTC2 319-541); test: ELISA, purified IgG
[3] = target: T3, SRBD subdomain of SARS-CoV-2 S protein; test: ELISA on coated SRBD
[4] = target: T1, SARS-CoV-2 spike (S) protein on …; test: cell-based or functional assay; remark: listed apart in the source

Binder	Neutralization IC50 (FRNT, authentic SARS-CoV-2 WA1/2020) [1] [µg/mL]	OD 450 nm (SARS-CoV-2 NTD) [OD 450 nm]	OD 450 nm [2] [OD 450 nm]	EC50 [3] [µg/mL]	Nano-luciferase virus reduction test, SARS-CoV-2, IC50 [4] [µg/mL]	SARS-CoV-2 focus reduction test, IC50 [4] [µg/mL]
COV2-2082 (antibody, V domains shown) VH: EVQLVESGGGVVRPGGSLRLSCAASGFIFDDYDMTWVRQAPGKGLEWVSGISWNGGNTGYADSVKGRFTISRDNAKNSLYLQMNSLRAEDTALYHCAVIMSPIPRYSGYDWAGGAFDIWGQGTMVTVSS VL: SSELTQDPAVSVALGQTVRITCQGDSLRSYYASWYQQKPGQVPILVIYDKNNRPSGIPDRFSGSSSGNTASLTITGAQAEDEADYYCNSRDSSGNAVVFGGGTKLTVL	0.204	0.11	4.3	0.0006	< 0.2	0.302
COV2-2113 (antibody, V domains shown) VH: EVQLVESGGGLIQPGGSLRLSCAASEVTVSSNYMSWVRQAPGKGLEWVSLIYSGGTTYYADSVKGRFTISRDNSKNTLYLQMNSLRAEDTAVYYCARDFLRWHDLWGQGTLVTVSS VL: DIQMTQSPSSLSASVGDRVTITCQASQDINNYLNWYQQKPGKAPKLLIYDASNLETGVPLRFSGSGSGTDFIFTISSLQPEDIATYYCQQYDNLPPVFGGGTKVEIK	1.04		4.4	0.0006	< 0.3	0.427
COV2-2132 (antibody, V domains shown) VH: EVQLVESGGGLIQPGGSLRLSCAASEVTVSSNYMSWVRQAPGKGLEWVSLIYSGGTTYYADSVKGRFTISRDNSKNTLYLQMNSLRAEDTAVYYCARDFLRWHDLWGQGTLVTVSS VL: DIQMTQSPSSLSASVGDRVTITCQASQDINNYLNWYQQKPGKAPKLLIYDASNLETGVPLRFSGSGSGTDFTFTISSLQPEDIATYYCQQYDNLPPVFGGGTKVEIK		0.15			< 0.3	0.673
COV2-2068 (antibody, V domains shown) VH: EVQLVESGGGLVQPGGSLRLSCAASGFTVSSNYMSWVRQAPGKGLEWVSVIYPGGSAFYADSVKGRFTISRHNSNNTLCLQMNSLRTEDTAVYYCARSYDILTGYRDAFDIWGQGTMVTVSS VL: QSVLTQPPSVSGAPGQRVTISCTGSSSNIGSGSDVHWYQQLPGTAPKLLIYGNTNRPSGVPDRFSGSKSGTSASLAITGLQAEDEADYYCQSYDSRLSGFVVFGGGTKLTVL	0.478	0.1	4.3	0.0012	< 0.3	0.864
COV2-2046 (antibody, V domains shown) VH: EVQLVESGGGLVQPGRSLRLSCAASGFTFDDYAMHWVRQAPGKGLEWVSGISWNSGSIAYTDSVKGRFTISRDNAKNSLYLQMNSLRAEDTALYYCAKAHSTGHQYYYGMDVWGQGTTVTVSS VL: DIQMTQSPSSLSASVGDRVTITCRASQSISSFLNWYQQKPGKAPKLLIYAAFNLQSGVPSRFSGSGSGTDFTLTISSLQSEDFATYYCQQSYNTPYTFGQGTKLEIK		0.09			< 0.1	0.171
COV2-2103 (antibody, V domains shown) VH: EVQLVESGGGLVQPGGSLRLSCAASGFTFSRHWMTWVRQAPGKGLEWVANIKQDGSEKYYVDSVKGRLTISRDNAKNSLYLQMNSLRAEDTAVYYCARLGFYYGGADYWGQGTLVTVSS VL: NFMLTQPHSVSESPGKTVTISCTGSSGSIASNYVQWYQQRPGSAPTTVISEDNQRPSGVPDRFSGSIDSSSNSASLTISGLKTEDEADYYCQSYDGINRAWVFGGGTKLTVL	1.97	0.12	4.3	0.0011		> 1
COV2-2098 (antibody, V domains shown) VH: EVQLLESGGGLIQPGGSLRLSCAASGFTFSNYAMSWVRQAPGKGLEWVSGIISTSGGATYNADSVRGRFTTSRDNSKNILYLQMNSLRGEDTAVYYCVKGLFDWFPLWGQGTMVTVSS VL: DIVMTQSPATLSVSPGERAILSCRASQSVRSNLAWYQQKPGQAPRLLISGASTRATAIPARFSGSGSGTEFTLTITSLQSEDCAVYYCHQYNNWPQTFGQGTKVEIK	1.03	0.15	4.2	0.0007	< 0.1	0.776
COV2-2050 (antibody, V domains shown) VH: QVQLVQSGAEVKKPGASVKVSCKASGYTFTDYYMHWVRQAPGQGLEWMGWINPNSRGTNYAQKFQGRVTMTRDTSISTVYMELSRLTSDDTAVYYCARVVVLGYGRPNNYYDGRNVWDYWGQGTLVTVSS VL: not shown	0.08	0.12	4.3	0.0016	< 0.05	0.025
COV2-2961 (antibody, V domains shown) VH: EVQLVQSGPEVKKPGTSVKVSCKASGFTFMSSAVQWVRQARGQRLEWIGWIVIGSGNTNYAQKFQERVTITRDMSTSTAYMELSSLRSEDTAVYYCAAPYCSSISCNDGFDIWGQGTMVTVSS VL: not shown						0.03
